According to publication PMC2366074:

Target: T1, inositol monophosphatase (IMPase) (UniProt P29218)
T1 sequence: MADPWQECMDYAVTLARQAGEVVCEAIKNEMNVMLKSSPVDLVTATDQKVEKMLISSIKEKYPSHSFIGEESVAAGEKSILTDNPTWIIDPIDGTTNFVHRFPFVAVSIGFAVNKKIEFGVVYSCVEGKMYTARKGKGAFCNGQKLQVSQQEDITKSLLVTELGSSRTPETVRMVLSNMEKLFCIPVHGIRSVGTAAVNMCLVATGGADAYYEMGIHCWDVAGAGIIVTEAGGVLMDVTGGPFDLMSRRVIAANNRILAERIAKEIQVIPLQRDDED

B1: recombinant calbindin (natural protein)
chain: MAESHLQSSLITASQFFEIWLHFDADGSGYLEGKELQNLIQELQQARKKAGLELSPEMKTFVDQYGQRDDGKIGIVELAHVLPTEENFLLLFRCQQLKSCEEFMKTWRKYDTDHSGFIETEELKNFLKDLLEKANKTVDDTKLAEYTDLMLKLFDSNNDGKLELTEMARLLPVQENFLLKFQGIKMCGKEFNKAFELYDQDGNGYIDENELDALLKDLCEKNKQDLDINNITTYKKNIMALSDGGKLYRTDLALILCAGDN
- IMPase activity in brain homogenates (Pi release from inositol-1-phosphate) with 20 uM recombinant calbindin: 1.66 fold
